# Reference: patent US20220298218A1 (ANTAG THERAPEUTICS, published 2022)
# *1 amine or outer side, *2 acyl side, *3 side chain or, on linkers, in order; H or OH if unused. Where no end group is shown, it is not given here. Side-chain parts run from the residue outwards. The star is where a group is joined. C18 diacid = O=C(O)CCCCCCCCCCCCCCCCC(=O)*; C16 diacid = O=C(O)CCCCCCCCCCCCCCC(=O)*; γGlu = O=C(O)[C@H](CCC(=O)[*:2])N[*:1]; AEEA = NCCOCCOCC(=O)O
# T1: human GIP receptor (human, UniProt P48546 22-466)
# T1 sequence (looked up): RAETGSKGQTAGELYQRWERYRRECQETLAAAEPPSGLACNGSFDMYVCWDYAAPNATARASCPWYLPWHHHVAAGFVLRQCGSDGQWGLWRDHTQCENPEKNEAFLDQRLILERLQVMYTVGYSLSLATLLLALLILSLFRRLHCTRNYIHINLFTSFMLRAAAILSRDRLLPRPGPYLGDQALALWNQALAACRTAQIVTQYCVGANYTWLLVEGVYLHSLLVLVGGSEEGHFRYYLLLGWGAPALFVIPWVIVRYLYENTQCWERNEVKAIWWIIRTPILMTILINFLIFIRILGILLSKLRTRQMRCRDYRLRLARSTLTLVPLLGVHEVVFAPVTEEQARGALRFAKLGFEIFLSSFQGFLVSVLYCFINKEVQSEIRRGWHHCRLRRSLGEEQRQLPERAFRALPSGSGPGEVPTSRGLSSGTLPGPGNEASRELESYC
# B1: AT367 (peptide)
# peptide: TFISDYKIAMDKIHQQDFVNWLLAQKGKKNDWKHN
# HELM: PEPTIDE1{T.F.I.S.D.Y.K.I.A.M.D.K.I.H.Q.Q.D.F.V.N.W.L.L.A.Q.K.G.K.K.N.D.W.K.H.N}|PEPTIDE2{[O=C(O)CCCCCCCCCCCCCCC(=O)[*:2]].[gGlu]}$PEPTIDE1,PEPTIDE2,7:R3-2:R2$$$V2.0; N-terminus assumed
# SMILES: CC[C@H](C)[C@H](NC(=O)[C@H](CCCCNC(=O)CC[C@H](NC(=O)CCCCCCCCCCCCCCC(=O)O)C(=O)O)NC(=O)[C@H](Cc1ccc(O)cc1)NC(=O)[C@H](CC(=O)O)NC(=O)[C@H](CO)NC(=O)[C@@H](NC(=O)[C@H](Cc1ccccc1)NC(=O)[C@@H](N)[C@@H](C)O)[C@@H](C)CC)C(=O)N[C@@H](C)C(=O)N[C@@H](CCSC)C(=O)N[C@@H](CC(=O)O)C(=O)N[C@@H](CCCCN)C(=O)N[C@H](C(=O)N[C@@H](Cc1c[nH]cn1)C(=O)N[C@@H](CCC(N)=O)C(=O)N[C@@H](CCC(N)=O)C(=O)N[C@@H](CC(=O)O)C(=O)N[C@@H](Cc1ccccc1)C(=O)N[C@H](C(=O)N[C@@H](CC(N)=O)C(=O)N[C@@H](Cc1c[nH]c2ccccc12)C(=O)N[C@@H](CC(C)C)C(=O)N[C@@H](CC(C)C)C(=O)N[C@@H](C)C(=O)N[C@@H](CCC(N)=O)C(=O)N[C@@H](CCCCN)C(=O)NCC(=O)N[C@@H](CCCCN)C(=O)N[C@@H](CCCCN)C(=O)N[C@@H](CC(N)=O)C(=O)N[C@@H](CC(=O)O)C(=O)N[C@@H](Cc1c[nH]c2ccccc12)C(=O)N[C@@H](CCCCN)C(=O)N[C@@H](Cc1c[nH]cn1)C(=O)N[C@@H](CC(N)=O)C(=O)O)C(C)C)[C@@H](C)CC
# B2: AT368 (peptide)
# peptide: TFISDYKIAMDKIHQQDFVNWLLAQKGKKNDWKHNITQ
# HELM: PEPTIDE1{T.F.I.S.D.Y.K.I.A.M.D.K.I.H.Q.Q.D.F.V.N.W.L.L.A.Q.K.G.K.K.N.D.W.K.H.N.I.T.Q}|PEPTIDE2{[O=C(O)CCCCCCCCCCCCCCC(=O)[*:2]].[gGlu]}$PEPTIDE1,PEPTIDE2,7:R3-2:R2$$$V2.0; N-terminus assumed
# SMILES: CC[C@H](C)[C@H](NC(=O)[C@H](CCCCNC(=O)CC[C@H](NC(=O)CCCCCCCCCCCCCCC(=O)O)C(=O)O)NC(=O)[C@H](Cc1ccc(O)cc1)NC(=O)[C@H](CC(=O)O)NC(=O)[C@H](CO)NC(=O)[C@@H](NC(=O)[C@H](Cc1ccccc1)NC(=O)[C@@H](N)[C@@H](C)O)[C@@H](C)CC)C(=O)N[C@@H](C)C(=O)N[C@@H](CCSC)C(=O)N[C@@H](CC(=O)O)C(=O)N[C@@H](CCCCN)C(=O)N[C@H](C(=O)N[C@@H](Cc1c[nH]cn1)C(=O)N[C@@H](CCC(N)=O)C(=O)N[C@@H](CCC(N)=O)C(=O)N[C@@H](CC(=O)O)C(=O)N[C@@H](Cc1ccccc1)C(=O)N[C@H](C(=O)N[C@@H](CC(N)=O)C(=O)N[C@@H](Cc1c[nH]c2ccccc12)C(=O)N[C@@H](CC(C)C)C(=O)N[C@@H](CC(C)C)C(=O)N[C@@H](C)C(=O)N[C@@H](CCC(N)=O)C(=O)N[C@@H](CCCCN)C(=O)NCC(=O)N[C@@H](CCCCN)C(=O)N[C@@H](CCCCN)C(=O)N[C@@H](CC(N)=O)C(=O)N[C@@H](CC(=O)O)C(=O)N[C@@H](Cc1c[nH]c2ccccc12)C(=O)N[C@@H](CCCCN)C(=O)N[C@@H](Cc1c[nH]cn1)C(=O)N[C@@H](CC(N)=O)C(=O)N[C@H](C(=O)N[C@H](C(=O)N[C@@H](CCC(N)=O)C(=O)O)[C@@H](C)O)[C@@H](C)CC)C(C)C)[C@@H](C)CC
# B3: AT428 (peptide)
# peptide: TFISDYK([AEEA-AEEA-AEEA-γGlu-C16 diacid])IAMDRIHQQDFVNWLLAQRGRRNDW-OH
# modifications: N-terminus assumed
# SMILES: CC[C@H](C)[C@H](NC(=O)[C@H](CCCCNC(=O)COCCOCCNC(=O)COCCOCCNC(=O)COCCOCCNC(=O)CC[C@H](NC(=O)CCCCCCCCCCCCCCC(=O)O)C(=O)O)NC(=O)[C@H](Cc1ccc(O)cc1)NC(=O)[C@H](CC(=O)O)NC(=O)[C@H](CO)NC(=O)[C@@H](NC(=O)[C@H](Cc1ccccc1)NC(=O)[C@@H](N)[C@@H](C)O)[C@@H](C)CC)C(=O)N[C@@H](C)C(=O)N[C@@H](CCSC)C(=O)N[C@@H](CC(=O)O)C(=O)N[C@@H](CCCNC(=N)N)C(=O)N[C@H](C(=O)N[C@@H](Cc1c[nH]cn1)C(=O)N[C@@H](CCC(N)=O)C(=O)N[C@@H](CCC(N)=O)C(=O)N[C@@H](CC(=O)O)C(=O)N[C@@H](Cc1ccccc1)C(=O)N[C@H](C(=O)N[C@@H](CC(N)=O)C(=O)N[C@@H](Cc1c[nH]c2ccccc12)C(=O)N[C@@H](CC(C)C)C(=O)N[C@@H](CC(C)C)C(=O)N[C@@H](C)C(=O)N[C@@H](CCC(N)=O)C(=O)N[C@@H](CCCNC(=N)N)C(=O)NCC(=O)N[C@@H](CCCNC(=N)N)C(=O)N[C@@H](CCCNC(=N)N)C(=O)N[C@@H](CC(N)=O)C(=O)N[C@@H](CC(=O)O)C(=O)N[C@@H](Cc1c[nH]c2ccccc12)C(=O)O)C(C)C)[C@@H](C)CC
# B4: AT430 (peptide)
# peptide: TFISDYK([AEEA-AEEA-AEEA-γGlu-C18 diacid])IAMDRIHQQDFVNWLLAQRGRRNDW-OH
# modifications: N-terminus assumed
# SMILES: CC[C@H](C)[C@H](NC(=O)[C@H](CCCCNC(=O)COCCOCCNC(=O)COCCOCCNC(=O)COCCOCCNC(=O)CC[C@H](NC(=O)CCCCCCCCCCCCCCCCC(=O)O)C(=O)O)NC(=O)[C@H](Cc1ccc(O)cc1)NC(=O)[C@H](CC(=O)O)NC(=O)[C@H](CO)NC(=O)[C@@H](NC(=O)[C@H](Cc1ccccc1)NC(=O)[C@@H](N)[C@@H](C)O)[C@@H](C)CC)C(=O)N[C@@H](C)C(=O)N[C@@H](CCSC)C(=O)N[C@@H](CC(=O)O)C(=O)N[C@@H](CCCNC(=N)N)C(=O)N[C@H](C(=O)N[C@@H](Cc1c[nH]cn1)C(=O)N[C@@H](CCC(N)=O)C(=O)N[C@@H](CCC(N)=O)C(=O)N[C@@H](CC(=O)O)C(=O)N[C@@H](Cc1ccccc1)C(=O)N[C@H](C(=O)N[C@@H](CC(N)=O)C(=O)N[C@@H](Cc1c[nH]c2ccccc12)C(=O)N[C@@H](CC(C)C)C(=O)N[C@@H](CC(C)C)C(=O)N[C@@H](C)C(=O)N[C@@H](CCC(N)=O)C(=O)N[C@@H](CCCNC(=N)N)C(=O)NCC(=O)N[C@@H](CCCNC(=N)N)C(=O)N[C@@H](CCCNC(=N)N)C(=O)N[C@@H](CC(N)=O)C(=O)N[C@@H](CC(=O)O)C(=O)N[C@@H](Cc1c[nH]c2ccccc12)C(=O)O)C(C)C)[C@@H](C)CC
# B5: AT443 (peptide)
# peptide: TFISDYK([AEEA-AEEA-γGlu-C16 diacid])IAMDRIHQQDFVNWLLAQRGPSSGAPPPS-OH
# modifications: N-terminus assumed
# SMILES: CC[C@H](C)[C@H](NC(=O)[C@H](CCCCNC(=O)COCCOCCNC(=O)COCCOCCNC(=O)CC[C@H](NC(=O)CCCCCCCCCCCCCCC(=O)O)C(=O)O)NC(=O)[C@H](Cc1ccc(O)cc1)NC(=O)[C@H](CC(=O)O)NC(=O)[C@H](CO)NC(=O)[C@@H](NC(=O)[C@H](Cc1ccccc1)NC(=O)[C@@H](N)[C@@H](C)O)[C@@H](C)CC)C(=O)N[C@@H](C)C(=O)N[C@@H](CCSC)C(=O)N[C@@H](CC(=O)O)C(=O)N[C@@H](CCCNC(=N)N)C(=O)N[C@H](C(=O)N[C@@H](Cc1c[nH]cn1)C(=O)N[C@@H](CCC(N)=O)C(=O)N[C@@H](CCC(N)=O)C(=O)N[C@@H](CC(=O)O)C(=O)N[C@@H](Cc1ccccc1)C(=O)N[C@H](C(=O)N[C@@H](CC(N)=O)C(=O)N[C@@H](Cc1c[nH]c2ccccc12)C(=O)N[C@@H](CC(C)C)C(=O)N[C@@H](CC(C)C)C(=O)N[C@@H](C)C(=O)N[C@@H](CCC(N)=O)C(=O)N[C@@H](CCCNC(=N)N)C(=O)NCC(=O)N1CCC[C@H]1C(=O)N[C@@H](CO)C(=O)N[C@@H](CO)C(=O)NCC(=O)N[C@@H](C)C(=O)N1CCC[C@H]1C(=O)N1CCC[C@H]1C(=O)N1CCC[C@H]1C(=O)N[C@@H](CO)C(=O)O)C(C)C)[C@@H](C)CC
# B6: AT444 (peptide)
# peptide: TFISDYK([AEEA-AEEA-AEEA-γGlu-C16 diacid])IAMDRIHQQDFVNWLLAQRGPSSGAPPPS-OH
# modifications: N-terminus assumed
# SMILES: CC[C@H](C)[C@H](NC(=O)[C@H](CCCCNC(=O)COCCOCCNC(=O)COCCOCCNC(=O)COCCOCCNC(=O)CC[C@H](NC(=O)CCCCCCCCCCCCCCC(=O)O)C(=O)O)NC(=O)[C@H](Cc1ccc(O)cc1)NC(=O)[C@H](CC(=O)O)NC(=O)[C@H](CO)NC(=O)[C@@H](NC(=O)[C@H](Cc1ccccc1)NC(=O)[C@@H](N)[C@@H](C)O)[C@@H](C)CC)C(=O)N[C@@H](C)C(=O)N[C@@H](CCSC)C(=O)N[C@@H](CC(=O)O)C(=O)N[C@@H](CCCNC(=N)N)C(=O)N[C@H](C(=O)N[C@@H](Cc1c[nH]cn1)C(=O)N[C@@H](CCC(N)=O)C(=O)N[C@@H](CCC(N)=O)C(=O)N[C@@H](CC(=O)O)C(=O)N[C@@H](Cc1ccccc1)C(=O)N[C@H](C(=O)N[C@@H](CC(N)=O)C(=O)N[C@@H](Cc1c[nH]c2ccccc12)C(=O)N[C@@H](CC(C)C)C(=O)N[C@@H](CC(C)C)C(=O)N[C@@H](C)C(=O)N[C@@H](CCC(N)=O)C(=O)N[C@@H](CCCNC(=N)N)C(=O)NCC(=O)N1CCC[C@H]1C(=O)N[C@@H](CO)C(=O)N[C@@H](CO)C(=O)NCC(=O)N[C@@H](C)C(=O)N1CCC[C@H]1C(=O)N1CCC[C@H]1C(=O)N1CCC[C@H]1C(=O)N[C@@H](CO)C(=O)O)C(C)C)[C@@H](C)CC
# Biological target: T1, human GIP receptor
# Test: cell-based or functional assay
Binder,cAMP antagonism [nM],cAMP antagonism % inhib [%],cAMP antagonism log [log M]
B1,6,100,-8.3
B2,9,100,-8.1
B3,296,90,-6.5
B4,153,100,-6.8
B5,171,100,-6.8
B6,153,100,-6.8
